Laboratory results published in US20160271157A1, “BETA-CATENIN” (UCL BUSINESS PLC, priority 2013, published 2016).

B1: Wnt5A: Recombinant Wnt peptide purchased from R&D systems (protein, UniProt P41221 62-380, looked up)
Protein Wnt-5a: IIGAQPLCSQLAGLSQGQKKLCHLYQDHMQYIGEGAKTGIKECQYQFRHRRWNCSTVDNTSVFGRVMQIGSRETAFTYAVSAAGVVNAMSRACREGELSTCGCSRAARPKDLPRDWLWGGCGDNIDYGYRFAKEFVDARERERIHAKGSYESARILMNLHNNEAGRRTVYNLADVACKCHGVSGSCSLKTCWLQLADFRKVGDALKEKYDSAAAMRLNSRGKLVQVNSRFNSPTTQDLVYIDPSPDYCVRNESTGSLGTQGRLCNKTSEGMDGCELMCCGRGYDQFKTVQTERCHCKFHWCCYVKCKKCTEIVDQFVCK

Tests used:
Format in all cases: cell-based
[1] = test system: PC3 cells; test: Scratch wound assay; conditions: wounded PC3 cells, ±Wnts and thapsigargin, vs control untreated cells
Procedure: PC3 cells were grown in 24 well, ImageLock plates (Essen Bioscience, MI) to confluency and scratched using a wound maker device (Essen Bioscience, MI). Imaging (at 2 h intervals) and quantitation of wound width was performed as described earlier (Wang at al., (2010) PLoS ONE 5, e10456) using Incucyte (Essen Bioscience, MI). The rate of wound closure (±Wnts and thapsigargin) was calculated by fitting the line using linear regression function in Origin software (Origin Lab Corp., MA). Statistical significance of difference between the slopes for untreated and treated samples was calculated using F-test.

[2] = test system: Cos7 simian kidney cell line; test: Live [Ca2+]i imaging after addition of Wnt ligand, Cos7; conditions: Cos7 cells
Procedure: The imaging protocol was developed in the inventor's laboratory and has been described in detail, elsewhere (Wang at al., (2010) PLoS ONE 5, e10456). Briefly, 100000-200000 PC3, MCF7, 253J or Cos 7 cells were plated on 35 mm FluoroDish (WPI) and grown for 48 h; calcium indicators Fluo-4 (Invitrogen) and FuraRed (Invitrogen) at 1 ng/ml were added to FluoroDish containing only 1 ml of culture medium and incubated for 15-20 min at 37° C. The culture medium was removed and washed (×2) and replaced with 1 ml PBS. Live cell calcium Imaging was performed on an Olympus FluoView FV 1000 confocal microscope (Olympus […]) equipped with a 20× dry objective (numerical aperture=0.75). Calcium indicators were excited with an argon laser line (488 nm) and emissions recorded in the green channel (500-560 nm) for Fluo-4 and red channel (600-700 nm) for FuraRed after addition of vehicle control (PBS) or Wnt X (30-600 ng/ml). […] Fluorescent intensity was measured and data exported as a tab delimited file for further analysis using a spreadsheet. All imaging experiments were performed in duplicate; intracellular calcium at 100 ng/ml was measured in at least 3-12 different passages (passage numbers 25 to 37) of cell line for each Wnt ligand. […] The measurements were exported as a tab delimited file into a spreadsheet for further analysis and Fluo4/Fura Red ratios were calculated. […]

[3] = test system: PC3 cells; test: Intranuclear calcium and membrane potential imaging (Fluo4 and FM4-64); conditions: Wnt5A 100 ng/ml
Procedure: The imaging protocol was developed in the inventor's laboratory and has been described in detail, elsewhere (Wang at al., (2010) PLoS ONE 5, e10456). Briefly, 100000-200000 PC3, MCF7, 253J or Cos 7 cells were plated on 35 mm FluoroDish (WPI) and grown for 48 h; calcium indicators Fluo-4 (Invitrogen) and FuraRed (Invitrogen) at 1 ng/ml were added to FluoroDish containing only 1 ml of culture medium and incubated for 15-20 min at 37° C. The culture medium was removed and washed (×2) and replaced with 1 ml PBS. Live cell calcium Imaging was performed on an Olympus FluoView FV 1000 confocal microscope (Olympus […]) equipped with a 20× dry objective (numerical aperture=0.75). Calcium indicators were excited with an argon laser line (488 nm) and emissions recorded in the green channel (500-560 nm) for Fluo-4 and red channel (600-700 nm) for FuraRed after addition of vehicle control (PBS) or Wnt X (30-600 ng/ml). Images were acquired every 1.1 or 2.2 seconds for up to 600-800s; image and data acquisition was performed using FluoView 1000 software (Olympus, UK). Fluorescent intensity was measured and data exported as a tab delimited file for further analysis using a spreadsheet. All imaging experiments were performed in duplicate; intracellular calcium at 100 ng/ml was measured in at least 3-12 different passages (passage numbers 25 to 37) of cell line for each Wnt ligand. […]

| Molecule | rate of wound closure [1] | [Ca2+]i activation in response to Wnt ligand [2] | delay of increase in intranuclear Ca2+ after start of increase in [Ca2+]i ([3]; Fluo4 and FM4) [s] | FM4 signal (depolarization) of cell and nuclear membranes ([3]; t=250s) |
| --- | --- | --- | --- | --- |
| C/C=C(/C)C(=O)O[C@H]1C(C)=C2[C@H]([C@@H]1OC(=O)CCCCCCC)[C@@](C)(OC(C)=O)C[C@H](OC(=O)CCC)[C@@]1(O)[C@H]2OC(=O)[C@@]1(C)O [thapsigargin, reference compound] | significant decrease |  |  |  |
| B1 |  | activated [Ca^2+]i | ~33 | increase in the FM4 signal in the cell and nuclear membranes |
